The test system of the series is Escherichia coli TOP10. The series is described as follows: shrunken log2 fold change of peptide-encoding DNA abundance (4.5 h post-induction vs induction); higher = less antimicrobial activity (less host growth inhibition). As to conditions: time post-induction: 4.5 h; library: site-saturation at positions 5, 18, 19, 20.
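Also: peptides expressed intracellularly from a pBAD plasmid library in pooled LB shake-flask culture, induced with 0.3% L-arabinose, DNA abundance read by NGS, three biological replicates, DESeq2 with apeglm shrinkage.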

Turning to RRIRFRPPRLPRPRPRPQRCPRP, the “shrunken log2 fold change” value came out at 0.08.

For RRIRPRPPRLPRPRPRPNIQPRP, the “shrunken log2 fold change” value was -0.404.

With RRIRQRPPRLPRPRPRPHIGPRP, the “shrunken log2 fold change” value was -0.0345.

Regarding RRIRARPPRLPRPRPRPHLMPRP, the “shrunken log2 fold change” value was determined as 0.0747.

For the sequence RRIRHRPPRLPRPRPRPVFDPRP, the “shrunken log2 fold change” value was -0.0994.

Take RRIRWRPPRLPRPRPRPILWPRP: the “shrunken log2 fold change” value was 0.117.

In the case of RRIRWRPPRLPRPRPRPQLDPRP, the “shrunken log2 fold change” value is 0.0393.

In the case of RRIRYRPPRLPRPRPRPSTQPRP, the “shrunken log2 fold change” value is -0.641.

Consider RRIRKRPPRLPRPRPRPCFKPRP, for which the “shrunken log2 fold change” value was determined as 0.0163.

RRIRDRPPRLPRPRPRPKYAPRP: the “shrunken log2 fold change” value was 0.0137.

For the sequence RRIRLRPPRLPRPRPRPRQMPRP, the “shrunken log2 fold change” value worked out at 0.208.

Consider RRIRVRPPRLPRPRPRPDWTPRP, for which the “shrunken log2 fold change” value worked out at 0.00219.

In the case of RRIRIRPPRLPRPRPRPPWRPRP, the “shrunken log2 fold change” value was found to be 0.507.

For the sequence RRIRERPPRLPRPRPRPYMRPRP, the “shrunken log2 fold change” value was -0.188.

Take RRIRGRPPRLPRPRPRPDNYPRP: the “shrunken log2 fold change” value was determined as 0.0266.

Regarding RRIRARPPRLPRPRPRPHIAPRP, the “shrunken log2 fold change” value is -0.111.

As for RRIRLRPPRLPRPRPRPKQDPRP, the “shrunken log2 fold change” value was -0.199.

In the case of RRIRQRPPRLPRPRPRPFDKPRP, the “shrunken log2 fold change” value is -0.0121.

Consider RRIRNRPPRLPRPRPRPSIHPRP, for which the “shrunken log2 fold change” value was -0.185.

In the case of RRIRVRPPRLPRPRPRPGKTPRP, the “shrunken log2 fold change” value came to 0.0999.

On to RRIRSRPPRLPRPRPRPCPNPRP, for which the “shrunken log2 fold change” value is -0.209.

RRIRPRPPRLPRPRPRPRWNPRP: the “shrunken log2 fold change” value turned out to be 0.115.

As for RRIRIRPPRLPRPRPRPMHVPRP, the “shrunken log2 fold change” value was -0.00468.

RRIRDRPPRLPRPRPRPCSMPRP: the “shrunken log2 fold change” value was -0.0575.

In the case of RRIRRRPPRLPRPRPRPKQHPRP, the “shrunken log2 fold change” value is 0.302.

As to RRIRARPPRLPRPRPRPFMQPRP, the “shrunken log2 fold change” value is -0.0876.

Turning to RRIRCRPPRLPRPRPRPFGIPRP, the “shrunken log2 fold change” value is -0.129.

With RRIRWRPPRLPRPRPRPCAQPRP, the “shrunken log2 fold change” value was found to be 0.162.

For RRIRTRPPRLPRPRPRPHPEPRP, the “shrunken log2 fold change” value was -0.0834.

Regarding RRIRFRPPRLPRPRPRPSGKPRP, the “shrunken log2 fold change” value was -0.0093.

As for RRIRVRPPRLPRPRPRPEGEPRP, the “shrunken log2 fold change” value stood at 0.171.

RRIRHRPPRLPRPRPRPIKRPRP: the “shrunken log2 fold change” value is -0.0154.

As to RRIRHRPPRLPRPRPRPVHFPRP, the “shrunken log2 fold change” value was -0.011.

For the sequence RRIRNRPPRLPRPRPRPRHDPRP, the “shrunken log2 fold change” value was 0.0353.

As to RRIRPRPPRLPRPRPRPEDWPRP, the “shrunken log2 fold change” value came to 0.391.

For RRIRARPPRLPRPRPRPIRGPRP, the “shrunken log2 fold change” value is 0.0372.

With RRIRARPPRLPRPRPRPCGNPRP, the “shrunken log2 fold change” value amounted to 0.0115.

Take RRIRCRPPRLPRPRPRPYSGPRP: the “shrunken log2 fold change” value is -0.566.

RRIRWRPPRLPRPRPRPLAFPRP: the “shrunken log2 fold change” value was 0.153.

With RRIRFRPPRLPRPRPRPQCFPRP, the “shrunken log2 fold change” value is -0.0591.

For the sequence RRIRCRPPRLPRPRPRPVSSPRP, the “shrunken log2 fold change” value was -0.0119.

As to RRIRIRPPRLPRPRPRPCMTPRP, the “shrunken log2 fold change” value is -0.337.

With RRIRLRPPRLPRPRPRPMKFPRP, the “shrunken log2 fold change” value was 0.0807.

As to RRIRRRPPRLPRPRPRPCDSPRP, the “shrunken log2 fold change” value was -0.396.

For the sequence RRIRYRPPRLPRPRPRPSDAPRP, the “shrunken log2 fold change” value was -0.386.

In the case of RRIRDRPPRLPRPRPRPCSEPRP, the “shrunken log2 fold change” value was found to be 0.283.

As to RRIRPRPPRLPRPRPRPEKMPRP, the “shrunken log2 fold change” value came to 0.742.

For the sequence RRIRVRPPRLPRPRPRPHEQPRP, the “shrunken log2 fold change” value was -0.163.

On to RRIRPRPPRLPRPRPRPHHTPRP, for which the “shrunken log2 fold change” value was -0.617.

Turning to RRIRLRPPRLPRPRPRPVVIPRP, the “shrunken log2 fold change” value was -0.0403.

For the sequence RRIRIRPPRLPRPRPRPECLPRP, the “shrunken log2 fold change” value stood at 0.0969.

As to RRIRRRPPRLPRPRPRPYSCPRP, the “shrunken log2 fold change” value is -0.0958.

As to RRIRERPPRLPRPRPRPWFPPRP, the “shrunken log2 fold change” value was -0.206.

For the sequence RRIRHRPPRLPRPRPRPRVWPRP, the “shrunken log2 fold change” value was found to be 0.534.

Take RRIRYRPPRLPRPRPRPSKMPRP: the “shrunken log2 fold change” value was -0.365.

RRIRERPPRLPRPRPRPWGYPRP: the “shrunken log2 fold change” value is -0.279.

Turning to RRIRKRPPRLPRPRPRPYTVPRP, the “shrunken log2 fold change” value was -0.0362.

Regarding RRIRTRPPRLPRPRPRPFSKPRP, the “shrunken log2 fold change” value was determined as 0.0087.

On to RRIRARPPRLPRPRPRPEHVPRP, for which the “shrunken log2 fold change” value came to 0.269.

For the sequence RRIRHRPPRLPRPRPRPDREPRP, the “shrunken log2 fold change” value was 0.0062.

For the sequence RRIRGRPPRLPRPRPRPGTLPRP, the “shrunken log2 fold change” value was 0.351.

Consider RRIRGRPPRLPRPRPRPNDLPRP, for which the “shrunken log2 fold change” value was 0.338.

On to RRIRWRPPRLPRPRPRPTEDPRP, for which the “shrunken log2 fold change” value stood at 0.0661.

RRIRRRPPRLPRPRPRPFPFPRP: the “shrunken log2 fold change” value is -0.0334.

RRIRDRPPRLPRPRPRPSCIPRP: the “shrunken log2 fold change” value stood at 0.0916.

For RRIRSRPPRLPRPRPRPDMAPRP, the “shrunken log2 fold change” value was -0.0366.

RRIRIRPPRLPRPRPRPNCFPRP: the “shrunken log2 fold change” value stood at 0.00306.

With RRIRQRPPRLPRPRPRPSECPRP, the “shrunken log2 fold change” value was -0.0674.

RRIRFRPPRLPRPRPRPPQNPRP: the “shrunken log2 fold change” value came to 0.536.

On to RRIRRRPPRLPRPRPRPIVDPRP, for which the “shrunken log2 fold change” value amounted to 0.841.

For the sequence RRIRIRPPRLPRPRPRPTSIPRP, the “shrunken log2 fold change” value was -0.182.

Turning to RRIRFRPPRLPRPRPRPCRPPRP, the “shrunken log2 fold change” value turned out to be 0.0632.

Consider RRIRQRPPRLPRPRPRPHAIPRP, for which the “shrunken log2 fold change” value is -0.562.

Turning to RRIRYRPPRLPRPRPRPEIEPRP, the “shrunken log2 fold change” value was -0.0892.

As to RRIRCRPPRLPRPRPRPCMTPRP, the “shrunken log2 fold change” value was -0.114.

For the sequence RRIRYRPPRLPRPRPRPPVYPRP, the “shrunken log2 fold change” value was -0.406.

Consider RRIRARPPRLPRPRPRPNQAPRP, for which the “shrunken log2 fold change” value was -0.117.

RRIRTRPPRLPRPRPRPWSNPRP: the “shrunken log2 fold change” value was 0.0394.

In the case of RRIRSRPPRLPRPRPRPDISPRP, the “shrunken log2 fold change” value is -0.0675.

Regarding RRIRVRPPRLPRPRPRPMFNPRP, the “shrunken log2 fold change” value was -0.4.

As to RRIRPRPPRLPRPRPRPCMLPRP, the “shrunken log2 fold change” value is -0.663.

Turning to RRIRQRPPRLPRPRPRPEKVPRP, the “shrunken log2 fold change” value was -0.155.

On to RRIRGRPPRLPRPRPRPTFEPRP, for which the “shrunken log2 fold change” value was found to be 0.923.

Turning to RRIRTRPPRLPRPRPRPKWSPRP, the “shrunken log2 fold change” value was -0.227.

In the case of RRIRMRPPRLPRPRPRPPRSPRP, the “shrunken log2 fold change” value stood at 1.6.

In the case of RRIRYRPPRLPRPRPRPMEDPRP, the “shrunken log2 fold change” value is -0.0944.

Take RRIRDRPPRLPRPRPRPLPPPRP: the “shrunken log2 fold change” value worked out at 0.306.

For the sequence RRIRARPPRLPRPRPRPLRLPRP, the “shrunken log2 fold change” value was found to be 0.809.

For RRIRRRPPRLPRPRPRPSTNPRP, the “shrunken log2 fold change” value was -0.0966.

For RRIRLRPPRLPRPRPRPSLLPRP, the “shrunken log2 fold change” value was -0.254.

With RRIRRRPPRLPRPRPRPIISPRP, the “shrunken log2 fold change” value was -0.155.

Take RRIRRRPPRLPRPRPRPWKIPRP: the “shrunken log2 fold change” value was -0.11.

As for RRIRYRPPRLPRPRPRPPNTPRP, the “shrunken log2 fold change” value was -0.686.

Turning to RRIRVRPPRLPRPRPRPYATPRP, the “shrunken log2 fold change” value is -0.124.

Consider RRIRHRPPRLPRPRPRPKTYPRP, for which the “shrunken log2 fold change” value was -1.51.

Regarding RRIRHRPPRLPRPRPRPDTIPRP, the “shrunken log2 fold change” value is -0.0628.

RRIRSRPPRLPRPRPRPQYQPRP: the “shrunken log2 fold change” value was -0.136.

On to RRIRVRPPRLPRPRPRPVNFPRP, for which the “shrunken log2 fold change” value was 0.02.

As to RRIRTRPPRLPRPRPRPEMSPRP, the “shrunken log2 fold change” value was -0.145.

For RRIRTRPPRLPRPRPRPVHAPRP, the “shrunken log2 fold change” value is -0.00294.

Take RRIRQRPPRLPRPRPRPFLHPRP: the “shrunken log2 fold change” value is 0.0118.

Consider RRIRHRPPRLPRPRPRPFYTPRP, for which the “shrunken log2 fold change” value was -1.02.

As to RRIRNRPPRLPRPRPRPPRYPRP, the “shrunken log2 fold change” value turned out to be 0.0834.

Regarding RRIRPRPPRLPRPRPRPCTNPRP, the “shrunken log2 fold change” value was -0.0219.

RRIRNRPPRLPRPRPRPAVDPRP: the “shrunken log2 fold change” value worked out at 0.0455.

Regarding RRIRSRPPRLPRPRPRPWGWPRP, the “shrunken log2 fold change” value came out at 0.0685.

For the sequence RRIRGRPPRLPRPRPRPSMCPRP, the “shrunken log2 fold change” value worked out at 0.37.

On to RRIRARPPRLPRPRPRPNDAPRP, for which the “shrunken log2 fold change” value was -0.0891.

For the sequence RRIRGRPPRLPRPRPRPMDNPRP, the “shrunken log2 fold change” value amounted to 0.12.

As for RRIRWRPPRLPRPRPRPRVYPRP, the “shrunken log2 fold change” value was -0.401.

As for RRIRKRPPRLPRPRPRPQAQPRP, the “shrunken log2 fold change” value is 0.0703.

As for RRIRERPPRLPRPRPRPPVPPRP, the “shrunken log2 fold change” value was 0.45.

RRIRSRPPRLPRPRPRPPKNPRP: the “shrunken log2 fold change” value turned out to be 0.223.

Consider RRIRARPPRLPRPRPRPFCSPRP, for which the “shrunken log2 fold change” value was -0.0878.

Consider RRIRWRPPRLPRPRPRPHLSPRP, for which the “shrunken log2 fold change” value is -0.154.

Turning to RRIRARPPRLPRPRPRPNNMPRP, the “shrunken log2 fold change” value was -0.516.

With RRIRARPPRLPRPRPRPFETPRP, the “shrunken log2 fold change” value is 0.0585.

Regarding RRIRSRPPRLPRPRPRPKYKPRP, the “shrunken log2 fold change” value was -0.422.

For RRIRGRPPRLPRPRPRPANCPRP, the “shrunken log2 fold change” value worked out at 0.147.

Take RRIRNRPPRLPRPRPRPILDPRP: the “shrunken log2 fold change” value was -0.0452.

As for RRIRIRPPRLPRPRPRPICPPRP, the “shrunken log2 fold change” value was 0.0188.

Turning to RRIRCRPPRLPRPRPRPPHTPRP, the “shrunken log2 fold change” value came out at 0.824.

For the sequence RRIRHRPPRLPRPRPRPSDVPRP, the “shrunken log2 fold change” value was -0.042.

Consider RRIRIRPPRLPRPRPRPNIDPRP, for which the “shrunken log2 fold change” value was -0.619.

As to RRIRIRPPRLPRPRPRPGSWPRP, the “shrunken log2 fold change” value stood at 0.227.

For the origin of these results see the supplement of paper PMC9112550, “Optimization of the antimicrobial peptide Bac7 by deep mutational scanning” (BMC Biology, 2022).
